From US12383631

Key:
[1] = biological target: Composition A (LZM-009 conjugated to IL-18 polypeptide of SEQ ID NO: 30) (human) (UniProt Q14116)
[2] = biological target: Composition C (Trastuzumab/Herceptin conjugated to IL-18 polypeptide of SEQ ID NO: 30) (human)
[3] = biological target: Composition D (LZM-009 conjugated to IL-18 polypeptide of SEQ ID NO: 31) (human) (UniProt Q14116)
[4] = biological target: IL-18 polypeptide of SEQ ID NO: 31 (C38A, C76A, C127A) (human) (UniProt Q14116)
[5] = biological target: native IL-18 wild-type (SEQ ID NO: 1) (human) (UniProt Q14116)
[6] = biological target: Composition D (LZM-009 conjugated to IL-18 polypeptide of SEQ ID NO: 31) (human) (UniProt Q14116); test: cell-based or functional assay
[7] = biological target: IL-18 polypeptide C144 (human) (UniProt Q14116); test: cell-based or functional assay
[8] = biological target: IL-18 polypeptide C146 (SEQ ID NO: 68) (human) (UniProt Q14116); test: cell-based or functional assay
[9] = biological target: IL-18 polypeptide C147 (human) (UniProt Q14116); test: cell-based or functional assay
[10] = biological target: IL-18 polypeptide C153 (human) (UniProt Q14116); test: cell-based or functional assay
[11] = biological target: IL-18 polypeptide C154 (human) (UniProt Q14116); test: cell-based or functional assay
[12] = biological target: IL-18 polypeptide C155 (human) (UniProt Q14116); test: cell-based or functional assay
[13] = biological target: IL-18 polypeptide C158 (human) (UniProt Q14116); test: cell-based or functional assay
[14] = biological target: IL-18 polypeptide C159 (human) (UniProt Q14116); test: cell-based or functional assay
[15] = biological target: IL-18 polypeptide C160 (human) (UniProt Q14116); test: cell-based or functional assay
[16] = biological target: IL-18 polypeptide of SEQ ID NO: 31 (C38A, C76A, C127A) (human) (UniProt Q14116); test: cell-based or functional assay
[17] = biological target: IL-18 polypeptide of SEQ ID NO: 37 (S55A) (human) (UniProt Q14116); test: cell-based or functional assay
[18] = biological target: IL-18 polypeptide of SEQ ID NO: 4 (E6K, C38A, K53A, C68A, M86C) (human) (UniProt Q14116); test: cell-based or functional assay
[19] = biological target: IL-18 polypeptide of SEQ ID NO: 46 (E06K, K53A, S55A, M51G) (human) (UniProt Q14116); test: cell-based or functional assay
[20] = biological target: IL-18 polypeptide of SEQ ID NO: 47 (C38S, C68S, C76S, C127S) (human) (UniProt Q14116); test: cell-based or functional assay
[21] = biological target: IL-18 polypeptide of SEQ ID NO: 54 (E06K, K53A, C38S, C68S, C76S, C127S, K70C) (human) (UniProt Q14116); test: cell-based or functional assay
[22] = biological target: IL-18 polypeptide of SEQ ID NO: 55 (K53A, T63A, C38S, C68S, C76S, C127S, K70C) (human) (UniProt Q14116); test: cell-based or functional assay
[23] = biological target: IL-18 polypeptide of SEQ ID NO: 6 (E6K, V11I, C38A, K53A, T63A, C68A, C76A, D98C, C127A) (human) (UniProt Q14116); test: cell-based or functional assay
[24] = biological target: IL-18 polypeptide of SEQ ID NO: 60 (E6K, C38Q, K53A) (human) (UniProt Q14116); test: cell-based or functional assay
[25] = biological target: IL-18 polypeptide of SEQ ID NO: 62 (E6K, C38A, K53A, C127A) (human) (UniProt Q14116); test: cell-based or functional assay

“Fc fused human IL-18 binding protein isoform a (IL-18BPa; R&D systems, Cat #119-BP) (from UniProt O95998 31-194) (Fc fusion)” showed an IC50 (read off the curve), IFNg secretion of the stimulated NK92 cells (IFNg AlphaLISA signal) [1] of 8 nM, an IC50 (read off the curve), IFNg secretion of the stimulated NK92 cells (IFNg AlphaLISA signal) [2] of 10 nM and an IC50 (read off the curve), IFNg secretion of the stimulated NK92 cells (IFNg AlphaLISA signal) [3] of 0.1 nM. For the same substance, the IC50 (read off the curve), IFNg secretion of the stimulated NK92 cells (IFNg AlphaLISA signal) [4] was 0.3 nM, the IC50 (read off the curve), IFNg secretion of the stimulated NK92 cells (IFNg AlphaLISA signal) [5] was 1 nM and the IC50 of IL-18BPa on IFNγ secretion by NK92 cells [6] was 0.098 nM. For the same substance, the IC50 of IL-18BP on IFNγ secretion, NK92 cells [7] was 7.52 nM, the IC50 of IL-18BP on IFNγ secretion, NK92 cells [8] was 733 nM and the IC50 of IL-18BP on IFNγ secretion, NK92 cells [9] was 47.6 nM. It also gave an IC50 of IL-18BP on IFNγ secretion, NK92 cells [10] of 2.22 nM, an IC50 of IL-18BP on IFNγ secretion, NK92 cells [11] of 3.71 nM and an IC50 of IL-18BP on IFNγ secretion, NK92 cells [12] of 3.23 nM. The IC50 of IL-18BP on IFNγ secretion, NK92 cells [13] was 3.98 nM, the IC50 of IL-18BP on IFNγ secretion, NK92 cells [14] was 1.81 nM and the IC50 of IL-18BP on IFNγ secretion, NK92 cells [15] was 3.18 nM. It also gave an IC50 of IL-18BPa on IFNγ secretion by NK92 cells [16] of 0.282 nM, an IC50 of IL-18BP on IFNγ secretion, NK92 cells [17] of 4.46 nM and an IC50 of IL-18BP on IFNγ secretion, NK92 cells [18] of 396 nM. It also gave an IC50 of IL-18BP on IFNγ secretion, NK92 cells [19] of 0.189 nM, an IC50 of IL-18BP on IFNγ secretion, NK92 cells [20] of 0.444 nM and an IC50 of IL-18BP on IFNγ secretion, NK92 cells [21] of 23.5 nM. For the same substance, the IC50 of IL-18BP on IFNγ secretion, NK92 cells [22] was > 1000 nM, the IC50 of IL-18BP on IFNγ secretion, NK92 cells [23] was 5.85 nM and the IC50 of IL-18BP on IFNγ secretion, NK92 cells [24] was 780 nM. The IC50 of IL-18BP on IFNγ secretion, NK92 cells [25] was 284 nM.
